Data taken from patent publication US20040214773.

Assays:
[1] = tested on: Spi2A-3xFLAG (murine serine protease inhibitor 2A with a C-terminal 3xFLAG epitope tag)
human cathepsin B = human cathepsin B (UniProt P07858)
human cathepsin G = molecular target: T1, human cathepsin G (UniProt P08311)
T1 sequence: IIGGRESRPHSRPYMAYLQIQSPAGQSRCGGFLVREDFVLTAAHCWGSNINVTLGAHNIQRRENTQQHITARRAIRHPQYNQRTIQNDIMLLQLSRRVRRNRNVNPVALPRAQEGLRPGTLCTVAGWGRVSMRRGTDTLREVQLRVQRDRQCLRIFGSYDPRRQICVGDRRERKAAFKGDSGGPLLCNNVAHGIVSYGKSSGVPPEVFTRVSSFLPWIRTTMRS

human cathepsin H = molecular target: T2, human cathepsin H (UniProt P09668)
T2 sequence: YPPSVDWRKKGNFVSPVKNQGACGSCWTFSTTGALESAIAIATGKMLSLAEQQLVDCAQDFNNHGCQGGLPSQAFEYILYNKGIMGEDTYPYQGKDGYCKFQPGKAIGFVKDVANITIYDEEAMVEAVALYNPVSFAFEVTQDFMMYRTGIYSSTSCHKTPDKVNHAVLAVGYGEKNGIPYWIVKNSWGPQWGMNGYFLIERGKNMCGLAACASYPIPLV

human cathepsin K = molecular target: T3, human cathepsin K (UniProt P43235)
T3 sequence: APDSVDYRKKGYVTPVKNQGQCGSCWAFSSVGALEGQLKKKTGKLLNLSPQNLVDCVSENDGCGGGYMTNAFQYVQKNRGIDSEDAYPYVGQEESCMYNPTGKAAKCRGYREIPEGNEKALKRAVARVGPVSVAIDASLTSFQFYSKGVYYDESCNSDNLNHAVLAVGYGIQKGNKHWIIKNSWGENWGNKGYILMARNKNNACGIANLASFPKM

human cathepsin L = human cathepsin L (UniProt P07711)
Sequence of human cathepsin L (P07711 114-333): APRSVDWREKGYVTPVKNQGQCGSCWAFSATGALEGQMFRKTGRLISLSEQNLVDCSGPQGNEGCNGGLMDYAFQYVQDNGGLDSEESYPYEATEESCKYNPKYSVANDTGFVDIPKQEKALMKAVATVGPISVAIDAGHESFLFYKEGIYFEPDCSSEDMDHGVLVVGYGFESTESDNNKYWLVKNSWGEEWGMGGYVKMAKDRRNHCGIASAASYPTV

human cathepsin V = human cathepsin V (UniProt O60911)
Sequence of human cathepsin V (O60911 114-334): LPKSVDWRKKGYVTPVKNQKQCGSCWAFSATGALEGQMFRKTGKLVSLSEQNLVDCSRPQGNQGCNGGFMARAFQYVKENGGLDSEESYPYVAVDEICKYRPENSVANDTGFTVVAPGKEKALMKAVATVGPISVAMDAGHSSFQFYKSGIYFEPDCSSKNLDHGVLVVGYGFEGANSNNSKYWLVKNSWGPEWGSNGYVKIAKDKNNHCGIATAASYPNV

human elastase = human elastase (UniProt P08246)
Sequence of human elastase (P08246 30-247): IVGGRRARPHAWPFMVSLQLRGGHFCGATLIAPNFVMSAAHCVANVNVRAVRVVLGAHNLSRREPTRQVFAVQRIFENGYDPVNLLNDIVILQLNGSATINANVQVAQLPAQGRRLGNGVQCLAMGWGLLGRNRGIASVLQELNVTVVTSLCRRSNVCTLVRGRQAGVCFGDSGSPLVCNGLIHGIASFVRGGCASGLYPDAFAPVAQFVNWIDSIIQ

human granzyme A = molecular target: T4, human granzyme A (UniProt P12544)
T4 sequence: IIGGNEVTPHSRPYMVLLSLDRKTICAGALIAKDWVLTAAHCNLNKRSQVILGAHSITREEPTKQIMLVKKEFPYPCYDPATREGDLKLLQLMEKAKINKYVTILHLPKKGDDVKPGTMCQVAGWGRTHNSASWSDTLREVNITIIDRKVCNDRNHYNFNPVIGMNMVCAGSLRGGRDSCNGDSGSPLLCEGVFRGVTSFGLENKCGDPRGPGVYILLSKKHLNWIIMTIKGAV

human granzyme B = human granzyme B (UniProt P10144)
Sequence of human granzyme B (P10144 21-247): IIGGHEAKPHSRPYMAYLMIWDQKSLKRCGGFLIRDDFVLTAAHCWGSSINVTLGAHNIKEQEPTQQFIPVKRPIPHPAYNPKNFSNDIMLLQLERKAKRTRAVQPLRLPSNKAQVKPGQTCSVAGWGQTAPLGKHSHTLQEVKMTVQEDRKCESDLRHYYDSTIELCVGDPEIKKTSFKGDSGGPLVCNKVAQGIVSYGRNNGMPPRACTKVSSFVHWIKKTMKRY

| Substance | continuous hydrolysis of the cathepsin B substrate (Z-FR)2-R110, 20 nM cathepsin B with 200 or 400 nM Spi2A [1] | protease activity after incubation under the same conditions as with Spi2A (human cathepsin B) | protease activity after incubation under the same conditions as with Spi2A (human cathepsin G) | protease activity after incubation under the same conditions as with Spi2A (human cathepsin H) | protease activity after incubation under the same conditions as with Spi2A (human cathepsin K) | protease activity after incubation under the same conditions as with Spi2A (human cathepsin L) | protease activity after incubation under the same conditions as with Spi2A (human cathepsin V) | protease activity after incubation under the same conditions as with Spi2A (human elastase) | protease activity after incubation under the same conditions as with Spi2A (human granzyme A) | protease activity after incubation under the same conditions as with Spi2A (human granzyme B) |
| --- | --- | --- | --- | --- | --- | --- | --- | --- | --- | --- |
| human cathepsin B | The enzyme was completely inhibited, within the dead time of the measurement | – | – | – | – | – | – | – | – | – |
| alkaline phosphatase tagged with C-terminal 3xFLAG (Sigma-Aldrich) | – | had no effect on protease activity | had no effect on protease activity | had no effect on protease activity | had no effect on protease activity | had no effect on protease activity | had no effect on protease activity | had no effect on protease activity | had no effect on protease activity | had no effect on protease activity |
